Test results reported in patent publication US20250250357A1 (NANJING ZAIMING PHARMACEUTICAL, published 2025).
Read-outs that look alike come from different tables or passages of the source. Values belong to the binder of their own block, whether it stands above or below them.

What was measured:
[1] = target: T1, human MSLN-FL-his protein (human, UniProt Q13421 296-580); assay: competitive ELISA; row F7.18.10
T1 construct: made in HEK293E cells, purified on nickel column; also called hMSLN-FL-his; human MSLN full-length protein; not shown: His tag
T1 sequence (Q13421 other isoform, or with tags, fused parts or gaps): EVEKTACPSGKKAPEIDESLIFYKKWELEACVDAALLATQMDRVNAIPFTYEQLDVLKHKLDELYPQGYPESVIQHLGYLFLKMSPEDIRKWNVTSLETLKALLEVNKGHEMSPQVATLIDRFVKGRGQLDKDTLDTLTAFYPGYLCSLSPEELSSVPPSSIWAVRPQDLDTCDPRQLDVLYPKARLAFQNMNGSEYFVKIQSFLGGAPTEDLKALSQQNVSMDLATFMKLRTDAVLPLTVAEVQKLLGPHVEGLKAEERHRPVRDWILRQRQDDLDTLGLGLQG

[2] = target: T1, human MSLN-FL-his protein; assay: SPR (Biacore), antibody captured on Protein A chip;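 also: flow cell at 25 °C, antigen injected for 240 s at five concentrations from 200 nM downward, dissociation followed up to 600 s, double-referenced, fitted with Langmuir 1:1 model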
[3] = target: T1, human MSLN-FL-his protein; assay: competitive ELISA; row Tab021
[4] = target: T1, human MSLN-FL-his protein; assay: competitive ELISA; row F7.2.3
[5] = target: T1, human MSLN-FL-his protein; assay: competitive ELISA; row Tab142
[6] = target: T2, human MSLN-R3 protein (human, UniProt Q13421 487-598); assay: ELISA, MSLN-R3 coated, antibody 0.001 nM
T2 construct: also called hMSLN-R3
T2 sequence (Q13421 495-606): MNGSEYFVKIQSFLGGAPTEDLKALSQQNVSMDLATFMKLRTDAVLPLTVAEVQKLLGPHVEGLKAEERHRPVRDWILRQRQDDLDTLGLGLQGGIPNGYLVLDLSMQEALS

[7] = target: T2, human MSLN-R3 protein; assay: ELISA, MSLN-R3 coated, antibody 1 nM
[8] = target: T2, human MSLN-R3 protein; assay: ELISA, MSLN-R3 coated, antibody 0.01 nM
[9] = target: T2, human MSLN-R3 protein; assay: ELISA, MSLN-R3 coated, antibody 0.0001 nM
[10] = target: T2, human MSLN-R3 protein; assay: ELISA, MSLN-R3 coated, antibody 100 nM
[11] = target: T2, human MSLN-R3 protein; assay: ELISA, MSLN-R3 coated, antibody 10 nM
[12] = target: T3, human MSLN-R3 on HEK293T-hMSLN-R3 recombinant cells (human, UniProt Q13421 487-606); assay: FACS, HEK293T-hMSLN-R3 cells
T3 construct: the C-terminal limit is uncertain; also called human MSLN-R3 membrane protein
T3 sequence (Q13421 495-614): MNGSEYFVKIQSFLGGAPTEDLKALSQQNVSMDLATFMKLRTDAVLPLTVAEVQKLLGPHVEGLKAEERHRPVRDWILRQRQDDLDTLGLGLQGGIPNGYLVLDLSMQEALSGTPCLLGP

[13] = target: T2, human MSLN-R3 protein; assay: ELISA, MSLN-R3 coated, antibody 0.1 nM
[14] = target: T4, human MSLN-R2-his protein (human, UniProt Q13421 391-486); assay: ELISA; antibody 10 nM
T4 construct: also called hMSLN-R2-his; not shown: His tag
T4 sequence (Q13421 other isoform, or with tags, fused parts or gaps): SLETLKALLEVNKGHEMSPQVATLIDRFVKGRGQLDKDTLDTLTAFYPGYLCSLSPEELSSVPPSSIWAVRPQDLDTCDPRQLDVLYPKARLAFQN

[15] = target: T5, human MSLN-R3-his protein (human, UniProt Q13421 487-598); assay: ELISA; antibody 0.0001 nM
T5 construct: also called hMSLN-R3-his; not shown: His tag
T5 sequence (Q13421 495-606): as the sequence (Q13421 495-606) above

[16] = target: T4, human MSLN-R2-his protein; assay: ELISA; antibody 0 nM (blank)
[17] = target: T5, human MSLN-R3-his protein; assay: ELISA; antibody 10 nM
[18] = target: T4, human MSLN-R2-his protein; assay: ELISA; antibody 0.01 nM
[19] = target: T5, human MSLN-R3-his protein; assay: ELISA; antibody 100 nM
[20] = target: T5, human MSLN-R3-his protein; assay: ELISA; antibody 0.01 nM
[21] = target: T4, human MSLN-R2-his protein; assay: ELISA; antibody 0.0001 nM
[22] = target: T5, human MSLN-R3-his protein; assay: ELISA; antibody 0.1 nM
[23] = target: T5, human MSLN-R3-his protein; assay: ELISA; antibody 1 nM
[24] = target: T4, human MSLN-R2-his protein; assay: ELISA; antibody 1 nM
[25] = target: T4, human MSLN-R2-his protein; assay: ELISA; antibody 0.1 nM
[26] = target: T4, human MSLN-R2-his protein; assay: ELISA; antibody 1 nM; remark: listed apart in the source
[27] = target: T4, human MSLN-R2-his protein; assay: ELISA; antibody 100 nM
[28] = target: T5, human MSLN-R3-his protein; assay: ELISA; antibody 0.001 nM
[29] = target: T5, human MSLN-R3-his protein; assay: ELISA; antibody 0 nM (blank)
[30] = target: T5, human MSLN-R3-his protein; assay: ELISA; antibody 1 nM; remark: listed apart in the source
[31] = target: T4, human MSLN-R2-his protein; assay: ELISA; antibody 0.001 nM
[32] = target: T3, human MSLN-R3 on HEK293T-hMSLN-R3 …; assay: FACS, HEK293T-hMSLN-R3 cells; remark: listed apart in the source
[33] = target: T3, human MSLN-R3 on HEK293T-hMSLN-R3 …; assay: FACS, HEK293T-hMSLN-R3 cells; remark: listed apart in the source
[34] = target: T3, human MSLN-R3 on HEK293T-hMSLN-R3 …; assay: FACS, HEK293T-hMSLN-R3 cells; remark: listed apart in the source
[35] = target: T3, human MSLN-R3 on HEK293T-hMSLN-R3 …; assay: FACS, HEK293T-hMSLN-R3 cells; remark: listed apart in the source
[36] = target: human MSLN on OVCAR3 tumor cells (human, UniProt Q13421 296-598); assay: FACS, OVCAR3 cells
Chain of human MSLN on OVCAR3 tumor cells (Q13421 other isoform, or with tags, fused parts or gaps): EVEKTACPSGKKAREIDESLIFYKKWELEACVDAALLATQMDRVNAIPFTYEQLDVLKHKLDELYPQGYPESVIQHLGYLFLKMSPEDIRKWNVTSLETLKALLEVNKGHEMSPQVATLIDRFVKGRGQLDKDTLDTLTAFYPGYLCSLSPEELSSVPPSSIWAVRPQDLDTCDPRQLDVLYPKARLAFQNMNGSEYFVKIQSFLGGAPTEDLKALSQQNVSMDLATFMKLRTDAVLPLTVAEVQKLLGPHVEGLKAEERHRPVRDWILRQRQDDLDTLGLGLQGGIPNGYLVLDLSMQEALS

[37] = target: T6, monkey MSLN on HEK293T-monkey MSLN recombinant cells (monkey); assay: FACS, HEK293T-monkey MSLN cells
T6 construct: Full-length precursor as transfected; processing on the cell is not described; also called HEK293-monkey MSLN
T6 chain: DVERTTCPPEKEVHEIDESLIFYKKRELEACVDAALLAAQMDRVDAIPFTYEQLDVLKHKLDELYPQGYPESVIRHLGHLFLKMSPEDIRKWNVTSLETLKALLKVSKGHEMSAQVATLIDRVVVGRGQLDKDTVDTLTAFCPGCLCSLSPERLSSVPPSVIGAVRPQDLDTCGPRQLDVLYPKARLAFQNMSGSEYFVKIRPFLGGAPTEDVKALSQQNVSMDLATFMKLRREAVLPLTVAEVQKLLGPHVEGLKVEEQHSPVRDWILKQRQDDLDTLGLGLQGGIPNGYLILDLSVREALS

B1: S009-F7.18.10 (antibody, human IgG1, kappa, V domains shown)
VH: QVQLQQSGAELVRPGTSVKVSCKASGYAFTNYLIEWVKQRPGQGLEWIGVINPGSGGTKYNEKFKGKATLTADKSSSTAYMQLSSLTSEDSAVYFCASDYDYDPFAYWGQGTLVTVSA
VL: DIVMTQSHKFMSTSVGDRVSITCKASQDVSTAVAWYQRKPGQSPKLLIYWASTRHTGVPDRFTGSGSGTDYTLTISYMQAEDLALYYCQQHYSTPYTFGGGTKLEIKR
notes: human-murine chimeric antibody, human IgG1/kappa constant regions
competition rate [1]: 97% | Kd [2]: 0.64 nM | koff [2]: 0.00117 s⁻¹ | kon [2]: 1.83e+06 M⁻¹ s⁻¹ | competition rate [3]: 9.2% | competition rate [4]: -29.4% | competition rate [5]: 94.4%

B2: F3.38.10-L2H3a (scFv, not shown: small tags and cut ends)
scFv: DIVMTQSPDSLAVSLGERATINCRSSQSLIHSDGNTYLQWYQQKPGQSPKLLIYKVSNRFSGVPDRFSGSGSGTDFTLTISSLQAEDVAVYYCSQTTHVPFTFGQGTKLEIKGGGGSGGGGSGGGGSEVQLVQSGAEVKKPGASVKVSCKASGYIFTDYYMNWVRQAPGQRLEWMGVINPKQGVISHNQKFKGRVTITVDKSANTAYMELSSLRSEDTAVYYCANYGSRFYAMDYWGQGTTVTVSS
notes: also called S009-F3.38.10 humanized antibody VL2 + VH3a
OD450 nm [6]: 0.05 OD | OD450 nm [7]: 0.12 OD | OD450 nm [8]: 0.05 OD | OD450 nm [9]: 0.05 OD | OD450 nm [10]: 1.88 OD | OD450 nm [11]: 0.72 OD | EC50 [12]: 166 nM | Maximum_MFI [12]: 795 MFI | OD450 nm [13]: 0.06 OD

B3: S009-F7.2.3 (antibody, human IgG1, kappa, V domains shown)
VH: ELQLVESGGDLVKPGGSLKLSCAASGFTFSSNGMSWLRQTPDKRLEWVATISSGGRYTYYPDSVKGRFTISRDNAKNTLYLQMSSLKSEDTAMYYCARRGIYDYFDCWGQGTTLTVSS
VL: DIQMTQSPASLSISVGETVTITCRASENIHSSLAWYQQKQGKSPQLLVYAATNLADGVPSRFSGSGSGSQYSLKINSLQSEDFGTYYCQHFWGTPWTFGGGTKLDIKR
notes: as for B1
competition rate [1]: 54.1% | Kd [2]: 13.2 nM | koff [2]: 0.00851 s⁻¹ | kon [2]: 643000 M⁻¹ s⁻¹ | competition rate [3]: -3.83% | competition rate [4]: 93.3% | competition rate [5]: 3.48%

B4: Tab106 (YP218, hIgG1) (antibody, V domains shown)
VH: QQQLEESGGGLVKPEGSLTLTCKASGFDLGFYFYACWVRQAPGKGLEWIACIYTAGSGSTYYASWAKGRFTISKASSTTVTLQMTSLAAADTATYFCARSTANTRSTYYLNLWGPGTLVTVSS
VL: DVVMTQTPASVSEPVGGTVTIKCQASQRISSYLSWYQQKPGQRPKLLIFGASTLASGVPSRFKGSGSGTEYTLTISDLECADAATYYCQSYAYFDSNNWHAFGGGTEVVVRT
notes: Control antibody; VH and VL recombined into human IgG1 CH and CL expression vectors; also called YP218 human IgG1 antibody; anti-human MSLN-R3 antibody
OD450 nm [14]: 0.11 | OD450 nm [15]: 0.05 | OD450 nm [16]: 0.05 | OD450 nm [17]: 1.75 | OD450 nm [18]: 0.04 | OD450 nm [19]: 2.29 | OD450 nm [20]: 0.06 | OD450 nm [21]: 0.04 | OD450 nm [22]: 0.12 | OD450 nm [23]: 0.62 | OD450 nm [24]: 0.05 | OD450 nm [25]: 0.05 | OD450 nm [26]: 0.05 | OD450 nm [27]: 0.7 | OD450 nm [28]: 0.05 | OD450 nm [29]: 0.05 | OD450 nm [30]: 0.62 | OD450 nm [31]: 0.04

B7: F7.44.20 (scFv)
chain: EVQLQQSGPELVKPGASVKIPCKASGYTFTDYNMDWVKQSHGKSLEWIGDINPSTGGTIYNQKFNGKATLTEDKSASTVYMEFRSLTSDDTAVYYCARRRIGTGYFDVWGTGTTVTVSSGGGGSGGGGSGGGGSQIVLTQSPALMSASPGEKVTLTCSASSSVISSYLSWYQQKPGSSPKLLIYRTSNLASGVPARFSGSGSGTSYSLTISSMEAEDAASYFCHQWSSFPYTFGGGTKLEIK
EC50 [36]: 2.42 nM | Maximum_MFI [36]: 1600 MFI | EC50 [37]: 8.38 nM | Maximum_MFI [37]: 7040 MFI | EC50 [35]: 1.27 nM | Maximum_MFI [35]: 1450 MFI

The next lines start with the values.

EC50 [32]: 0.76 nM | Maximum_MFI [32]: 2120 MFI | OD450 nm [6]: 0.05 OD | OD450 nm [7]: 0.25 OD | OD450 nm [8]: 0.05 OD | EC50 [33]: 1.22 nM | Maximum_MFI [33]: 4970 MFI | OD450 nm [9]: 0.05 OD | EC50 [34]: 1.6 nM | Maximum_MFI [34]: 3070 MFI | OD450 nm [10]: 1.89 OD | OD450 nm [11]: 1.05 OD | EC50 [12]: 30.2 nM | Maximum_MFI [12]: 777 MFI | OD450 nm [13]: 0.07 OD | EC50 [35]: 0.76 nM | Maximum_MFI [35]: 2120 MFI
B5: Tab111 (scFv, not shown: small tags and cut ends)
scFv: DVVMTQTPASVSEPVGGTVTIKCQASQRISSYLSWYQQKPGQRPKLLIFGASTLASGVPSRFKGSGSGTEYTLTISDLECADAATYYCQSYAYFDSNNWHAFGGGTEVVVGGGGSGGGGSGGGGSQQQLEESGGGLVKPEGSLTLTCKASGFDLGFYFYACWVRQAPGKGLEWIACIYTAGSGSTYYASWAKGRFTISKASSTTVTLQMTSLAAADTATYFCARSTANTRSTYYLNLWGPGTLVTVSS
notes: also called YP218 VL-(G4S)3-VH-his antibody; positive control

EC50 [36]: 1.09 nM | Maximum_MFI [36]: 2920 MFI | EC50 [37]: 2.97 nM | Maximum_MFI [37]: 11100 MFI | EC50 [35]: 0.48 nM | Maximum_MFI [35]: 1850 MFI
B6: F7.44.20-VL-VH (scFv)
chain: QIVLTQSPALMSASPGEKVTLTCSASSSVISSYLSWYQQKPGSSPKLLIYRTSNLASGVPARFSGSGSGTSYSLTISSMEAEDAASYFCHQWSSFPYTFGGGTKLEIKGGGGSGGGGSGGGGSEVQLQQSGPELVKPGASVKIPCKASGYTFTDYNMDWVKQSHGKSLEWIGDINPSTGGTIYNQKFNGKATLTEDKSASTVYMEFRSLTSDDTAVYYCARRRIGTGYFDVWGTGTTVTVSS
